Blank lines part the entries; values can stand above or below the binder they belong to.
Experiments:
[1] = target: T1, human PD-1-Fc (R and D systems, Minneapolis, Minn.) (human, UniProt Q15116 25-167); assay: plate ELISA on adsorbed human PD-1-Fc, single site saturation fit
T1 construct: bought; also called hPD-1-Fc; hPD-1; not shown: Fc part of the bought fusion

[2] = target: T2, mouse PD-1 expressed on HEK293 cells (mouse, UniProt Q02242 25-288); assay: flow cytometry on mPD-1 HEK293 cells, titration from 150 nM
T2 construct: whole, on cells; also called HEK293-mPD-1; mPD-1 HEK293 cells
T2 sequence (looked up): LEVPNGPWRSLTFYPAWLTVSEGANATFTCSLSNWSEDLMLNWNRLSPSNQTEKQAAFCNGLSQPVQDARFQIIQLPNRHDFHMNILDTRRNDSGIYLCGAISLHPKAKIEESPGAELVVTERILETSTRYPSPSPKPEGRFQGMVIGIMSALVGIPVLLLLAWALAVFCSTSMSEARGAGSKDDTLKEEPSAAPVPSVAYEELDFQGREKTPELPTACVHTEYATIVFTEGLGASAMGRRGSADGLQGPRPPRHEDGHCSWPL

[3] = target: T1, human PD-1-Fc (R and D systems, …); assay: inhibition ELISA on human PD-1-Fc; competitor 2 nM biotinylated PD-L1 (hPDL1/Fc)
[4] = target: T1, human PD-1-Fc (R and D systems, …); assay: inhibition ELISA on human PD-1-Fc; competitor 2 nM biotinylated PDL2 (hPDL2/Fc)
[5] = target: T1, human PD-1-Fc (R and D systems, …); assay: plate ELISA on human PD-1-Fc; reference A1.4

T1 sequence (Q15116 25-167 limits assumed): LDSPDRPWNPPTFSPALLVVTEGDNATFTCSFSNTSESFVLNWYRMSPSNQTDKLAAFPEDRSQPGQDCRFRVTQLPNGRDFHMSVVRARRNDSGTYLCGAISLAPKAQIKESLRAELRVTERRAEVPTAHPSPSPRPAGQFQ

B1: m245-M5-MHC729 (antibody, V domains shown)
VH: EVQLVESGGGLVKSGGSLKLSCAHSGFSFSSYDMSWVRQTPAKRLEWVATISGGGRYTYYPDSVKGRFTISRDNAKNTLYLQMSGLRSEDTAMYYCASNYYGFDYWGQGTTLTVSS
VL: DIVMTQSHKFMSTSVGDRVSITCKASQDVGTAVAWYQQKPGQSPKLLIYWASTRHTGVPDRFTGSGSGTDFTLTISNVQSEDLADYFCQQYSSYPWTFGGGTKLEIK
notes: mouse hybridoma antibody, mIgG1/K
Kd [1]: 0.34 nM

B3: m136-M19-MHC725 (antibody, V domains shown)
VH: EVQLQQSGPELVKPGDSVKMSCKASGYTFTDYYMDWVKQSHGKSLEWIGYIYPKNGGSSYNQKFKGKATLTVDKSSSTAYMELHSLTSEDSAVYYCARKVVATDYWGQGTTLTVSS
VL: DIVMSQSPSSLAVSVGEKVTMSCKSSQSLLYSSNQKNYLAWYQQKPGQSPKLLIFWASIRESGVPDRFTGSGSGTDFTLTISSVKAEDRAVYYCQQCDSYPWTFGGGTKLEIK
notes: mouse hybridoma antibody, mIgG2b/K
Kd [1]: 0.23 nM

B4: m245-M3-MHC728 (antibody, V domains shown)
VH: EVKLVESGGGLVKPGGSLKLSCAASGFTFSNYAMSWVRQTPAKRLEWVAYISNGGGDTHYPDSLKGRFTVSRDNAKNTLYLQMSSLKSEDTAMYYCARENYGTSPFVYWGQGTLVTVSA
VL: not shown
notes: mouse hybridoma antibody, mIgG2a/K
Kd [1]: 0.22 nM

B5: m136-M13-MHC723 (antibody, V domains shown)
VH: EVKLVESGGGLVKPGGSLKLSCAASGFTFSGYAMSWVRQTPAKRLEWVAYISNSGGNAHYPDSVKGRFTISRDNAKNTLYLQMSSLRSEDTAMYYCTREDYGTSPFVYWGQGTLVTVSA
VL: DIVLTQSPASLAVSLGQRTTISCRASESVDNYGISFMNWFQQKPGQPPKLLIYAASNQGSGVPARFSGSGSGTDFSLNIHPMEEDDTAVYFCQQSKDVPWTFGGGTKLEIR
notes: as for B1
IC50 [3]: 3.3 nM
Kd [1]: 0.19 nM
IC50 [4]: 2 nM

Second part, the binder after the results:

binding result [2]: binds
B2: J43v2 mIgG2a (antibody, V domains shown)
VH: EVRLLESGGGLVKPEGSLKLSCVASGFTFSDYFMSWVRQAPGKGLEWVAHIYTKSYNYATYYSGSVKGRFTISRDDSRSMVYLQMNNLRTEDTATYYCTRDGSGYPSLDFWGQGTQVTVSS
VL: YELTQPPSASVNVGETVKITCSGDQLPKYFADWFHQRSDQTILQVIYDDNKRPSGIPERISGSSSGTTATLTIRDVRAEDEGDYYCFSGYVDSDSKLYVFGSGTQLTVLG
notes: also called J43 m2a; J43v2 m2a

IC50 [3]: 4.8 nM
Kd [1]: 0.19 nM
IC50 [4]: 2.8 nM
B6: m136-M14-MHC724 (antibody, V domains shown)
VH: KVMLVESGGDLVKPGGSLKLSCAASGFTFSSYGMSWVRQTPEKRLEWVATISGGGRDIYYADTVKGRFTISRDNAKNTLYLQMSSLRSEDTALYFCARLYLGFDYWGQGTTLTVSS
VL: DIQMTQSPASQSASLGESVTITCLASQTIGTWLAWYQQKPGKSPQLLIYAATSLADGVPSRFSGSGSGTKFSFKISSLQAEDFVSYYCQQLYSIPWTFGGGTKLEIK
notes: as for B4

ME (masking efficiency, Kd of the activatable antibody divided by Kd of the parental antibody) [5]: 2
B7: PD-1 1.4 PD009 2001 (antibody, human IgG4 S228P, kappa)
heavy: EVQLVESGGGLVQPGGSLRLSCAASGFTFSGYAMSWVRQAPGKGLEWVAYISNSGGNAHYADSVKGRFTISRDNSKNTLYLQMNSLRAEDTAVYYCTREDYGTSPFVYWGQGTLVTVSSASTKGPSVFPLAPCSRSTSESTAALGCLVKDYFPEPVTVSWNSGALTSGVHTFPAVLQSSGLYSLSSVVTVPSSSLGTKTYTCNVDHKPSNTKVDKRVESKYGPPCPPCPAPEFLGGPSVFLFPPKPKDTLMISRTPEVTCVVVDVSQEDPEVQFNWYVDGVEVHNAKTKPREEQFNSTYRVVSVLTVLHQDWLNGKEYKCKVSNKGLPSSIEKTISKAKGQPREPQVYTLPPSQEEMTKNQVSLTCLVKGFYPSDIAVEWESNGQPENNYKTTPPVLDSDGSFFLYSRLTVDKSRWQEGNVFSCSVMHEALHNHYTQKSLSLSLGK
light: QGQSGQGAPRTCYTYQCSSFYTGGGSSGGSISSGLLSGRSDNHGGGSDIQLTQSPSSLSASVGDRVTITCRASESVDSYGISFMNWFQQKPGKAPKLLIYAASNQGSGVPSRFSGSGSGTDFTLTISSMQPEDFATYYCQQSKDVPWTFGQGTKLEIKRTVAAPSVFIFPPSDEQLKSGTASVVCLLNNFYPREAKVQWKVDNALQSGNSQESVTEQDSKDSTYSLSSTLTLSKADYEKHKVYACEVTHQGLSSPVTKSFNRGEC
notes: also called PD09 (A1.4)

Reference: US20170044259A1 (CYTOMX THERAPEUTICS, published 2017)
